Laboratory results as given in PMC7041945, “Misfolded proteins bind and activate death receptor 5 to trigger apoptosis during unresolved endoplasmic reticulum stress” (eLife, 2020).

Assays:
Type in all cases: cell-based, Homo sapiens
[1] = tested on: caspase 8 in HCT116 GFP-Trap immunoprecipitates; test: Caspase 8 activity (caspase glo 8) of GFP immunoprecipitates (beads)
Procedure: 15 cm dishes were seeded with 4 million HCT116 cells and allowed to recover for 18 hr prior to transfection. Samples were then transfected for 24 hr with the GFP-tagged ER trafficked protein, cytosolic GFP, or empty vector. To harvest apoptotic and living cells for each sample, all media and washes were collected. Cells were scraped in 2 ml of cold PBS and combined with the media and washes. Samples were centrifuged to pellet cells, washed with 1 ml cold PBS, and flash frozen in liquid N2 prior to lysis.
The cell pellets were resuspended in 750 μl of 30 mM HEPES pH 7.2, 150 mM NaCl, 1% Triton X-100 with 1x Roche protease inhibitor cocktail (if used subsequently for caspase glo 8 assay) or with 5x Roche protease inhibitor cocktail (if used for immunoblotting). The cells were lysed by mechanical shearing through a 25G needle for 13–15 plunges followed by incubation on ice for 30 min. The lysate was centrifuged at 2000xg for 5 min to remove debris and then incubated with 30 μl of GFP-Trap magnetic agarose beads (Chromotek gtma-20) for 4 hr at 4°C. The beads were then washed with 750 μl of lysis buffer for 10 min at 4°C for three rounds.
For measuring caspase activity, a fifth of the beads was resuspended in 40 μl of 30 mM HEPES pH 7.2, 150 mM NaCl, 1% Triton X-100. 10 μl of the resuspended mixture was incubated with 10 ul of the caspase glo 8 luminogenic substrate (Promega #PRG8200) for 45 min at RT before measuring luminescence.

[2] = tested on: PARP / caspase 8 / caspase 3 in HCT116 cells; test: Western blot of HCT116 lysates (PARP, caspase 8 and caspase 3 cleavage, DR5 level)
Procedure: Media and cells for each sample were collected by cell scraping into cold PBS followed by a subsequent wash with 1 ml of cold PBS. The cell pellet was then resuspended in cold lysis buffer (30 mM HEPES pH 7.2, 150 mM NaCl, 1% Triton X100, 1x Roche protease inhibitor) and lysed via needle shearing on ice. Samples were centrifuged at 1000xg for 5 min, and the supernatants were mixed with sample buffer to a final concentration of 1% SDS, 62.5 mM Tris-HCl pH 6.8, 10% glycerol, 0.1% bromophenol blue, 50 mM DTT. Samples were boiled at 95°C and loaded on SDS-PAGE gels (GenScript). Samples were subsequently transferred onto nitrocellulose membranes, blocked with Odyssey buffer (Licor) for 1 hr at RT, and probed with primary antibodies diluted 1:1000 (unless otherwise specified) in Licor Odyssey buffer supplemented with 0.1% Tween 20% at 4°C overnight.
Bound primary antibodies were probed by HRP-conjugated secondary antibodies (Amersham, Piscataway, NJ, 1:10000) using enhanced chemiluminescence (SuperSignal; Thermo Scientific, Waltham, MA) detected by standard film or through the ChemiDoc XRS+ Imaging System (Bio-Rad).

DR5 = DR5 immunoprecipitation (blotted for DR5, MPZ-GFP, FADD); settings: HCT116 transfected with MPZ-GFP
Procedure: IP for DR5 was performed as previously described in [Lu et al. (2014)], using anti-DR5 mAb 5C7-conjugated agarose beads gifted by David Lawrence of the Ashkenazi lab at Genentech Inc.

[3] = tested on: caspase 8 in HCT116 lysates; test: Caspase 8 activity (caspase glo 8) of cell lysates / IP inputs; settings: for average fold change rel to empty: mean of 4 dilutions
Procedure: Cells harvested from a 6-well plate were resuspended in 100 μl of lysis buffer (30 mM HEPES pH 7.2, 150 mM NaCl, 1% Triton X-100) and lysed via needle shearing (25G, 10 passes) followed by a 30 min incubation on ice. Supernatant was collected after centrifuging at 1000xg for 5 min. For the caspase activity assay, 10 μl of supernatant diluted with lysis buffer (1:25, 1:50, 1:100 to stay within linear range of luminescence measurements) was incubated with 10 μl of the luminogenic caspase glo 8 substrate (Promega #PRG8200) in a 384-white walled plate (Corning 3574) for 45 min at RT before measuring luminescence on a Spectramax-M5 plate reader.

[4] = tested on: caspase 8 in HCT116 lysates; test: Size-exclusion chromatography of cell lysates with caspase 8 activity; settings: relative to GFP; 24 hr
Procedure: Size-exclusion fractionation of cell lysate was performed as previously described in [Lu et al. (2014)] with minor modifications.
In a 15 cm dish, 4 million HCT116 cells were seeded 18 hr prior to transfection (see Transient transfections for protein expression). 24 hr post-transfection, cells were harvested by collecting all media (to collect detached, dying cells) and scraping the dish in 3 ml of cold PBS. The cell suspension was centrifuged at 500xg to pellet the sample. Cells were washed with an additional 1 ml of cold PBS, pelleted, and flash frozen in liquid N2 prior to lysis.
Cells were resuspended in 600 μl of lysis buffer (30 mM HEPES pH 7.2, 150 mM NaCl, 1% Triton X-100) with 1x protease inhibitor (Roche) and lysed through a 25G needle with 10 passes. […]
For the caspase 8 activity assay, 10 μl of each fraction was incubated with 10 μl of the caspase glo 8 substrate (Promega #PRG8200) in a 384-well white walled plate (Corning 3574) for 45 min at RT before measuring luminescence on a Spectramax-M5 plate reader.
For Western blots, every three fractions were pooled for a total of 1.5 ml and subjected to TCA precipitation to concentrate the protein content. Samples were then analyzed by SDS-PAGE and immunoblotted for GFP and DR5.

B1: MPZ-GFP: myelin protein zero with a C-terminal monomeric EGFP, expressed from plasmid (protein)
chain: IVVYTDREVHGAVGSRVTLHCSFWSSEWVSDDISFTWRYQPEGGRDAISIFHYAKGQPYIDEVGTFKERIQWVGDPRWKDGSIVIHNLDYSDNGTFTCDVKNPPDIVGKTSQVTLYVFEKVPTRYGVVLGAVIGGVLGVVLLLLLLFYVVRYCWLRRQAALQRRLSAMEKGKLHKPGKDASKRGRQTPVLYAMLDHSRSTKAVSEKKAKGLGESRKDKK
modifications: left off: monomeric EGFP, C-terminal, kept
notes: myelin protein zero with a C-terminal monomeric EGFP, expressed from plasmid
average fold change in caspase 8 activity relative to empty ([1]; GFP IP beads, run 2019-02-05): 2.174 fold
average fold change (relative to empty average) ([1]; GFP beads, dilution 0.0666667, average of rep1-rep3): 3.5
fold change in caspase 8 activity, Mean ± SEM (unpaired t test) ([1]; GFP beads, n=3): 2.621 ± 0.4397, n=3 fold
average fold change in caspase 8 activity relative to empty ([1]; GFP beads, sheet 2018-02-11 (compiled as Rep 2019-02-11)): 3.5 fold
fold change in caspase 8 activity, average of averages ([1]; GFP beads, three runs compiled): 2.621 fold
caspase 8 activity of immunoprecipitates compared to empty beads ([1]; MPZ-GFP immunoprecipitates, 24 hr post-transfection): 2–3 fold
DR5 int (bg subtracted) ([2]; DR5 input levels, Rep 2): 739.08
normalized DR5 to GAPDH ([2]; DR5 input levels, Rep 2): 0.2156
DR5 int (bg subtracted) ([2]; DR5 input levels, Rep 3): 357.944
normalized DR5 to GAPDH ([2]; DR5 input levels, Rep 3): 0.2423
DR5 levels normalized to GAPDH, average ([2]; DR5 input levels, average of rep 2 and rep 3, Stdev in row below): 0.229
caspase 8 and caspase 3 cleavage, high expression ([2]; HCT116, 24 hr): cleavage of caspase 8and its downstream target caspase 3
caspase 8 and 3 cleavage/activity, low expression level ([2]; low levels of MPZ-GFP expression, proper plasma membrane localization): did not induce caspase 8 or 3 activity
DR5 pull-down (DR5): enriched for FADD and MPZ-GFP
average fold change rel to empty ([3]; 3 hr): 0.9963 fold
average fold change rel to empty ([3]; 7 hr): 0.909 fold
average fold change rel to empty ([3]; 10 hr): 1.233 fold
average fold change rel to empty ([3]; 20 hr): 1.145 fold
average fold change rel to empty ([3]; 24 hr): 2.224 fold
average fold change ([3]; Rep 1, HCT116 lysate, amount not given, normalized RLUs relative to empty (GFP), average over four lysate dilutions): 2.827 fold
fold change relative to empty ([3]; input, dilution 0.01, rep1): 2.2
fold change relative to empty ([3]; input, dilution 0.01, rep2): 1.925
fold change relative to empty ([3]; input, dilution 0.01, rep3): 0.9528
fold change relative to empty ([3]; input, dilution 0.02, rep1): 2.798
fold change relative to empty ([3]; input, dilution 0.02, rep2): 1.811
fold change relative to empty ([3]; input, dilution 0.02, rep3): 1.706
avg fold change ([3]; input, dilution 0.02, second listing, relative to avg. empty, average of rep1-rep3): 1.9619
fold change relative to empty ([3]; input, dilution 0.02, second listing, rep2): 1.832
fold change relative to empty ([3]; input, dilution 0.02, second listing, rep3): 1.342
fold change in caspase 8 activity relative to empty, Mean ± SEM ([3]; inputs of GFP pulldown, n=6): 1.899 ± 0.2476, n=6 fold
caspase 8 activity in high MW size exclusion fractions [4]: increased caspase 8 activity in high-molecular w8 (MW) fractions
